Source: doi:10.1101/2021.02.10.430713

Target: Listeria monocytogenes c-di-AMP effector protein Lmo0553 (Listeria monocytogenes)
Assay: crystal structure

Substance “Listeria monocytogenes c-di-AMP effector protein Lmo0553 (natural protein)” has a stoichiometry N of 2.
